Data reported in patent publication US8501696.
One block for each substance: values may come before it.

Legend:
[1] = biological target: human gp130 on the BAF3 cell surface (human) (UniProt P40189); experiment: cell-based or functional assay
[2] = biological target: Hyper-IL-6 (designer cytokine consisting of covalently linked IL-6 and sIL-6R) (human) (UniProt P08887); experiment: SPR; conditions: Fc fusion
Target sequence in this assay (P08887 20-323, chain 1 of 2): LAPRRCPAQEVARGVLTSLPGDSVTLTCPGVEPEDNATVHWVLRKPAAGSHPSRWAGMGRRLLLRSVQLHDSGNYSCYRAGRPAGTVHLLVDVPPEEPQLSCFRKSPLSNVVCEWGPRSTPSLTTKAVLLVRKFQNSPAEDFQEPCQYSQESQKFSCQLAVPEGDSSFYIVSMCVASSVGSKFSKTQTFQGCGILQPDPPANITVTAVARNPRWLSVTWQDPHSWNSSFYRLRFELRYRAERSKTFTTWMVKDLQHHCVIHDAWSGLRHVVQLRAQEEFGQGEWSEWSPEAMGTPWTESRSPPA
Target sequence in this assay (P05231 30-212, chain 2 of 2, further chain): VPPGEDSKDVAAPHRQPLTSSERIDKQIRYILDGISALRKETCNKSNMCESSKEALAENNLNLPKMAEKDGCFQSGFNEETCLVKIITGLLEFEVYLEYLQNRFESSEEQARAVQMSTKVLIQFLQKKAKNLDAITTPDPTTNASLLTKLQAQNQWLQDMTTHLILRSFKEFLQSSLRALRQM

[3] = biological target: Hyper-IL-6 (designer cytokine consisting of covalently linked IL-6 and sIL-6R) (human) (UniProt P08887); experiment: cell-based or functional assay
Target sequence in this assay (P08887 20-323 limits assumed, chain 1 of 2): as the sequence (P08887 20-323, chain 1 of 2) above
Target sequence in this assay (P05231 30-212 limits assumed, chain 2 of 2, further chain): as the sequence (P05231 30-212, chain 2 of 2, further chain) above

[4] = biological target: human IL-6/sIL-6R complex (interleukin-6 plus soluble interleukin-6 receptor) (human) (UniProt P05231); experiment: cell-based or functional assay
[5] = biological target: Hyper-IL-6 (designer cytokine consisting of covalently linked IL-6 and sIL-6R) (human) (UniProt P08887); experiment: SPR, ProteOn XPR36, mutein immobilised, Hyper-IL-6 80 to 2.5 nM in flow, 25 C
Target sequence in this assay (P08887 20-323 limits assumed, chain 1 of 2): as the sequence (P08887 20-323, chain 1 of 2) above
Target sequence in this assay (P05231 30-212 limits assumed, chain 2 of 2, further chain): as the sequence (P05231 30-212, chain 2 of 2, further chain) above

human gp130 on the BAF3 cell surface (human), sequence (P40189 23-918): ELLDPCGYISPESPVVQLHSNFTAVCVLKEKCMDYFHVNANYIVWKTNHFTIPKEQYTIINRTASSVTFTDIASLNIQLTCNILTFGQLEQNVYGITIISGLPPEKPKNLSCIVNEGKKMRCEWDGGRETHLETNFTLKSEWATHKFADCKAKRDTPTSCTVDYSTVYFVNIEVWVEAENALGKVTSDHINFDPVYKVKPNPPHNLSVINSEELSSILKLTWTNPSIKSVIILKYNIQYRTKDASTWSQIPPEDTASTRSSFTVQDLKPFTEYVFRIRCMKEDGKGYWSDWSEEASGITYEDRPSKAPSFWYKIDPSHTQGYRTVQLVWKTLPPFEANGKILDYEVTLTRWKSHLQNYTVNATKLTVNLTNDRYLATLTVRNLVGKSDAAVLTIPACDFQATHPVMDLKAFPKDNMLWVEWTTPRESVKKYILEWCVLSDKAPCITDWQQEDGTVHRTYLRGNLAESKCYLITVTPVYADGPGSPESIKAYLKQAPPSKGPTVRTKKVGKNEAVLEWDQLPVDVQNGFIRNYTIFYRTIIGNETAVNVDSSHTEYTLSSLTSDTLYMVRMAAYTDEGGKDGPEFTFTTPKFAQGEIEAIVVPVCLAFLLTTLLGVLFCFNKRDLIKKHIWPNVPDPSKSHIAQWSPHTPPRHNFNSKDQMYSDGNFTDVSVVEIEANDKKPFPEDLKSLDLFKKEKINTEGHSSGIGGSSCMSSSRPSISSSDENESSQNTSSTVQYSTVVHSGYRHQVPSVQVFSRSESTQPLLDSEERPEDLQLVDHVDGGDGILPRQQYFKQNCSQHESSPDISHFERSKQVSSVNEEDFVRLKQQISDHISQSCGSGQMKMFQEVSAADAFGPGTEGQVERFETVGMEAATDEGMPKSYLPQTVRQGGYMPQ
human IL-6/sIL-6R complex (interleukin-6 plus soluble interleukin-6 receptor) (human), sequence (P05231 30-212 limits assumed, chain 1 of 2): as the sequence (P05231 30-212, chain 2 of 2, further chain) above
human IL-6/sIL-6R complex (interleukin-6 plus soluble interleukin-6 receptor) (human), sequence (P08887 20-358 limits assumed, chain 2 of 2, further chain): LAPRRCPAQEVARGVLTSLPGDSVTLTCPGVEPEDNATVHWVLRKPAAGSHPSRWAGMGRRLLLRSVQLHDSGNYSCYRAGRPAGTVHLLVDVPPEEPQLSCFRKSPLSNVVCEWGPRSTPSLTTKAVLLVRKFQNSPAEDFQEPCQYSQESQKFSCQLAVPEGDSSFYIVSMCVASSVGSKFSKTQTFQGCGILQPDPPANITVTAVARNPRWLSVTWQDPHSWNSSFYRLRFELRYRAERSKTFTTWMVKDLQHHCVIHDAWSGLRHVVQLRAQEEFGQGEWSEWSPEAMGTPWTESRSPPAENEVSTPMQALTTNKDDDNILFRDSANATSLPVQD

amount needed for the same proliferation signal in BAF3/gp130 cells, against human IL-6/sIL-6R [1]: 3 fold
Substance: murine IL-6/sIL-6R complex (from UniProt P08505 25-211; P22272 20-364) (ligand)

Substance: sgp130Fc triple mutein Thr102Tyr/Gln113Phe/Asn114Leu (T102Y/Q113F/N114L) (from UniProt P40189 23-619)
Kd [2]: 0.122 nM

IC50 of inhibition of BAF3/gp130 proliferation, fold lower than wild type sgp130Fc (Cell Titer-Blue assay) [3]: > 3 fold | IC50 of inhibition of BAF3/gp130 proliferation, fold lower than wild type sgp130Fc (MTS assay) [4]: 3 fold | fold increase of the affinity constant KD against wild type sgp130Fc [5]: 4 fold
Substance: sgp130Fc triple mutein Thr102Tyr/Gln113Phe/Asn114Leu (T102Y/Q113F/N114L) (from UniProt P40189 23-619) (Fc fusion)
